89 sequences from the supplement of paper PMC10724198 can be followed below.

± gives the standard deviation of the averaged measurements.

Data set [1] deals with Saccharomyces cerevisiae. Put plainly: protein stability index of tFT-peptide fusion (C-terminal peptide) (PSI (0-1 scale)); higher = more stable (slower turnover). How it is done: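 MPS profiling in S. cerevisiae of the tFT-X12 degron library: putative degron peptides plus stable controls, 12 aa, fused to the C-terminus of a sfGFP-mCherry timer. Cells are FACS-sorted into 8 mCherry/sfGFP bins and deep-sequenced. PSI runs from 0 (unstable) to 1 (stable). Backgrounds are wild type, das1Δ and doa10Δ at 30 °C, and wild type, das1Δ, cdc34-1 and cdc53-1 at 37 °C; 2-3 technical replicates each.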

Data set [2] concerns Saccharomyces cerevisiae. The description is as above. To be noted: genetic background: wild type; temperature: 30 C.
Setting [3] is: genetic background: cdc34-1, temperature: 37 C.
Setting [4] is: genetic background: cdc53-1, temperature: 37 C.
[5] abbreviates: genetic background: das1 deletion, temperature: 30 C.
Setting [6] is: genetic background: das1 deletion, temperature: 37 C.
Where [7] appears, read: genetic background: doa10 deletion, temperature: 30 C.
Where [8] appears, read: genetic background: wild type, temperature: 30 C.
Where [9] appears, read: genetic background: wild type, temperature: 37 C.
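Also: PSI is a weighted mean of sequencing reads over stability bins, variants kept only with over 10 reads, mCherry proximal and sfGFP distal, peptide attached via GGGS linker.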

TGPVFVSFRLLH: the protein stability index was determined as 0.703 ± 0.065 in the data set on Saccharomyces cerevisiae [1] (setting [3]); 0.752 ± 0.012 with Saccharomyces cerevisiae [1] (setting [4]); 0.67 ± 0.066 with Saccharomyces cerevisiae [1] (setting [5]); 0.737 ± 0.024 in the data set with Saccharomyces cerevisiae [1] (setting [6]); 0.384 ± 0.015 with Saccharomyces cerevisiae [1] (setting [7]); 0.405 ± 0.035 in the data set with Saccharomyces cerevisiae [1] (setting [8]). Moreover, the protein stability index with Saccharomyces cerevisiae [1] (setting [9]) is 0.627 ± 0.0095.
In the case of TLDCKFGRGGIG, the protein stability index with Saccharomyces cerevisiae [1] (setting [3]) worked out at 0.309 ± 0.015; in the data set on Saccharomyces cerevisiae [1] (setting [4]) it was 0.423 ± 0.013; in the data set on Saccharomyces cerevisiae [1] (setting [5]), 0.332 ± 0.0069; in the data set with Saccharomyces cerevisiae [1] (setting [6]), 0.401 ± 0.017; with Saccharomyces cerevisiae [1] (setting [7]), 0.325 ± 0.0077; in the data set with Saccharomyces cerevisiae [1] (setting [8]), 0.321 ± 0.013. In the data set on Saccharomyces cerevisiae [1] (setting [9]), the protein stability index stood at 0.392 ± 0.0016.
As for WLFAILPSRLIA, the protein stability index is 0.284 ± 0.021 in the data set on Saccharomyces cerevisiae [1] (setting [3]); 0.373 ± 0.0075 in the data set on Saccharomyces cerevisiae [1] (setting [4]); 0.344 ± 0.035 with Saccharomyces cerevisiae [1] (setting [5]); 0.488 ± 0.0068 in the data set on Saccharomyces cerevisiae [1] (setting [6]); 0.0644 ± 0.0086 with Saccharomyces cerevisiae [1] (setting [7]); 0.0673 ± 0.012 with Saccharomyces cerevisiae [1] (setting [8]). This sequence showed a protein stability index with Saccharomyces cerevisiae [1] (setting [9]) of 0.0638 ± 0.0027.
In the data set with Saccharomyces cerevisiae [2], WVGRGGAVENKV registered a protein stability index of 0.718 ± 0.03.
For WVLRRVGTVVYL, the protein stability index in the data set on Saccharomyces cerevisiae [2] came to 0.585 ± 0.018.
The same measure, in the same setting: in the case of WVLSYVPEIGRL it was 0.741 ± 0.035; in that of WVWGWRRGLRGV, 0.657 ± 0.011; in that of WVWKRLTGQDGA, 0.668 ± 0.06.
Sequence WWGFGGVWRCGL came in with a protein stability index with Saccharomyces cerevisiae [2] of 0.6874 ± 0.0056.
With WWHVLLGGCGCW, in the data set on Saccharomyces cerevisiae [2], the protein stability index is 0.753 ± 0.013.
The sequence WWLARNPLLSRL showed a protein stability index in the data set with Saccharomyces cerevisiae [2] of 0.779 ± 0.026.
WWSAHIRAGASL returned a protein stability index in the data set on Saccharomyces cerevisiae [2] of 0.672 ± 0.017.
WWWGGGRGGMGG: the protein stability index in the data set on Saccharomyces cerevisiae [2] stood at 0.734 ± 0.019.
Consider WYVALGRFVGGS, for which, in the data set with Saccharomyces cerevisiae [2], the protein stability index was determined as 0.678 ± 0.049.
In turn, YACFRYEYNRLR yielded a protein stability index in the data set with Saccharomyces cerevisiae [2] of 0.679 ± 0.029.
YACRLAPGDLLA registered a protein stability index with Saccharomyces cerevisiae [2] of 0.643 ± 0.0088.
In the case of YAIINISRESLD, the protein stability index in the data set with Saccharomyces cerevisiae [2] amounted to 0.717 ± 0.062.
On the same count and under the same terms, the figure for YAVGSAGLGVGL is 0.697 ± 0.1; for YAVIRILCSSRR it is 0.5725 ± 0.0039; for YDMFCSYRFYPI it is 0.636 ± 0.07.
Take YDRVVHASSTMW: the protein stability index in the data set on Saccharomyces cerevisiae [2] was found to be 0.707 ± 0.013.
YEASSIPAWRYV had a protein stability index in the data set on Saccharomyces cerevisiae [2] of 0.529 ± 0.034.
In the case of YEGPSTLVYHVR, in the data set on Saccharomyces cerevisiae [2], the protein stability index stood at 0.915 ± 0.082.
Regarding YESIVLYPEMYL, the protein stability index in the data set with Saccharomyces cerevisiae [2] is 0.714 ± 0.2.
Take YFFQAFLLRTPL: the protein stability index with Saccharomyces cerevisiae [2] worked out at 0.642 ± 0.018.
In the data set on Saccharomyces cerevisiae [2], YFGGRGARGRER showed a protein stability index of 0.676 ± 0.027.
YFGGRGPRGRER: the protein stability index in the data set on Saccharomyces cerevisiae [2] amounted to 0.714 ± 0.0095.
As for YFGRGKLGVVRT, the protein stability index in the data set with Saccharomyces cerevisiae [2] came out at 0.705 ± 0.013.
As to YFKLLHSRPSVG, in the data set with Saccharomyces cerevisiae [2], the protein stability index is 0.675 ± 0.044.
Consider YFLLLLLNSSTP, for which the protein stability index in the data set on Saccharomyces cerevisiae [2] was 0.528 ± 0.042.
On the same count and under the same terms, the figure for YFLPLLCRSPSL is 0.707 ± 0.0095; for YFPGILFGAIFS it is 0.668 ± 0.07.
The same measure, in the same setting: the figure for YFTNSVPVGTVA is 0.501 ± 0.0076; for YGSQAYAIDSKP it is 0.6369 ± 0.0009.
The same measure, in the same setting: in the case of YGSSFRLVFSVT it was 0.583 ± 0.0074; in that of YGVEWGAESNLY, 0.8019 ± 0.0068; in that of YHIGSINLTVRQ, 0.778 ± 0.083.
YHLISSVRLPSS: the protein stability index with Saccharomyces cerevisiae [2] is 0.731 ± 0.033.
On the same count and under the same terms, in the case of YIDLLTRVCIRR it was 0.6921 ± 0.0024; in that of YIKKTTPTIERG, 0.7157 ± 0.0039; in that of YIRSYRITKREE, 0.656 ± 0.035.
As to YISEKKKIEERK, the protein stability index in the data set with Saccharomyces cerevisiae [2] amounted to 0.69 ± 0.032.
In the case of YKGYEIIGSVQG, the protein stability index with Saccharomyces cerevisiae [2] was 0.72 ± 0.023.
Same read-out and setting: the figure for YKKLTRKKIQDK is 0.781 ± 0.0088.
As to YKRKTKMQRVSN, the protein stability index with Saccharomyces cerevisiae [2] amounted to 0.627 ± 0.01.
Regarding YLEQALLDVQTD, the protein stability index in the data set on Saccharomyces cerevisiae [2] came out at 0.756 ± 0.021.
In the data set with Saccharomyces cerevisiae [2], YLIGRIIYFFGR gave a protein stability index of 0.582 ± 0.0021.
Still for that read-out and setting: in the case of YLLLPPPPPPSL it was 0.722 ± 0.0098.
The same measure, in the same setting: in the case of YLNVVSSFYTCS it was 0.684 ± 0.02; in that of YLPRREAALRRV, 0.7118 ± 0.0034.
Still for that read-out and setting: the figure for YLSACLCGGFCS is 0.684 ± 0.047; for YLVSRRSGCDLE it is 0.683 ± 0.051; for YMCPSFCLPLFP it is 0.731 ± 0.1.
On to YNDGSNPYLSRS, for which, in the data set on Saccharomyces cerevisiae [2], the protein stability index is 0.722 ± 0.065.
Consider YNFLQSGADPNR, for which the protein stability index in the data set on Saccharomyces cerevisiae [2] is 0.721 ± 0.016.
For YNLASGIEVPID, in the data set with Saccharomyces cerevisiae [2], the protein stability index is 0.664 ± 0.013.
Turning to YNSSSYCGGGCG, the protein stability index with Saccharomyces cerevisiae [2] is 0.6844 ± 0.0053.
The sequence YPARSPPSPLSL gave a protein stability index with Saccharomyces cerevisiae [2] of 0.686 ± 0.025.
As to YPDYTSATGNIR, the protein stability index in the data set with Saccharomyces cerevisiae [2] amounted to 0.666 ± 0.016.
Turning to YPHQRGRPDAHH, the protein stability index in the data set with Saccharomyces cerevisiae [2] amounted to 0.71 ± 0.021.
In the data set on Saccharomyces cerevisiae [2], YPLRCPITATHA yielded a protein stability index of 0.616 ± 0.099.
In the data set with Saccharomyces cerevisiae [2], YPPPRPDLPLLQ gave a protein stability index of 0.679 ± 0.016.
The sequence YPSRSPFLSLSC came in with a protein stability index in the data set on Saccharomyces cerevisiae [2] of 0.683 ± 0.028.
The same measure, in the same setting: the figure for YPTSLLHLHSPP is 0.708 ± 0.044.
For YQLEDSNEKVEN, in the data set on Saccharomyces cerevisiae [2], the protein stability index was found to be 0.712 ± 0.085.
On the same count and under the same terms, in the case of YRKAAGSQDRAV it was 0.663 ± 0.018; in that of YRVPWIVESFVD, 0.751 ± 0.087; in that of YSGFYIRRGLTW, 0.689 ± 0.011.
Still for that read-out and setting: in the case of YSILYRMQNSKI it was 0.696 ± 0.021.
In turn, YSKVGCRHSYHT displayed a protein stability index in the data set on Saccharomyces cerevisiae [2] of 0.669 ± 0.017.
On the same count and under the same terms, in the case of YSPAYDHLRPDH it was 0.7034 ± 0.0069; in that of YSPFCPSASPWA, 0.712 ± 0.023; in that of YSPSPPSFAFSS, 0.801 ± 0.079.
For YSPVPPPTRPPL, the protein stability index in the data set with Saccharomyces cerevisiae [2] is 0.7069 ± 0.0017.
As for YSREVVGKQLFM, in the data set on Saccharomyces cerevisiae [2], the protein stability index was 0.693 ± 0.027.
Still for that read-out and setting: the figure for YSRYAASYSMVV is 0.688 ± 0.021; for YTGRFDSSDIWY it is 0.818 ± 0.057.
As for YTGVCEWRANVH, in the data set on Saccharomyces cerevisiae [2], the protein stability index came out at 0.689 ± 0.0096.
YTKTGRQRHHCR yielded a protein stability index in the data set with Saccharomyces cerevisiae [2] of 0.677 ± 0.011.
For the sequence YTSELPVLARRH, the protein stability index in the data set on Saccharomyces cerevisiae [2] came out at 0.633 ± 0.021.
Still for that read-out and setting: in the case of YVALSTGPLRTP it was 0.6828 ± 0.0065; in that of YVELTGRITTKL, 0.716 ± 0.038.
YVEVIDERYPCV came in with a protein stability index in the data set on Saccharomyces cerevisiae [2] of 0.757 ± 0.021.
For the sequence YVGLAAGEVGMG, in the data set on Saccharomyces cerevisiae [2], the protein stability index came to 0.661 ± 0.02.
Still for that read-out and setting: in the case of YVQFISFAGTRP it was 0.724 ± 0.025; in that of YVSHLLMVGRFI, 0.616 ± 0.01.
The same measure, in the same setting: the figure for YWLCITECHIRK is 0.541 ± 0.0092; for YYEVVCPLQHRI it is 0.46 ± 0.16; for YYGCGAFGFSVR it is 0.695 ± 0.014.
